Source: patent publication US20260209357A1 (CSL INNOVATION, published 2026)

Legend:
[1] = biological target: T1, soluble recombinant human FcRn/β2m (human, UniProt P55899 24-297; P61769 21-119); test: SPR, ligand on surface, soluble HuFcRn/b2m as analyte; pH not printed with the table (paragraph 351 speaks of pH 6.0)
T1 construct: About 42 kDa; also called HuFcRn/b2m; huFcRn/b2m

[2] = biological target: T2, biotinylated human FcRn/β2m (human, UniProt P55899 24-297; P61769 21-119, biotinylated (Biotin-NHS amine chemistry or BirA biotin ligase; site not stated)); test: SPR, biotinylated FcRn/β2m on streptavidin or neutravidin chip, antagonist as analyte (avidity conditions), pH 7.3; column head printed ka (1/s)
T2 construct: The soluble human FcRn/β2m after biotinylation, tethered on streptavidin or neutravidin chips; also called surface-captured biotinylated human FcRn complexed with β2m
T2 sequence (P55899 24-297 limits assumed, chain 1 of 2): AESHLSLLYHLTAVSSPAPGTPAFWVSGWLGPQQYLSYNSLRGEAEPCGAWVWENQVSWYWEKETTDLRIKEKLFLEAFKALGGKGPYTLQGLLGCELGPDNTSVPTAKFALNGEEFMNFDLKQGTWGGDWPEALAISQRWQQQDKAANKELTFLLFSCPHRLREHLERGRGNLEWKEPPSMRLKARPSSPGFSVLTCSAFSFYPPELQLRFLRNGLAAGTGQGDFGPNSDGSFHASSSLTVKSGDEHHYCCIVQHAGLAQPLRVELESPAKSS
T2 sequence (P61769 21-119 limits assumed, chain 2 of 2): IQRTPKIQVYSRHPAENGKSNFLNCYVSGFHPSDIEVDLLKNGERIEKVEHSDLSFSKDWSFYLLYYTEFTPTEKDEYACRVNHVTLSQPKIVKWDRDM

[3] = biological target: T2, biotinylated human FcRn/β2m; test: SPR, biotinylated FcRn/β2m on streptavidin or neutravidin chip, antagonist as analyte (avidity conditions), pH 7.3
[4] = biological target: T2, biotinylated human FcRn/β2m; test: SPR, surface-bound huFcRn/b2m, pH 7.3
[5] = biological target: T3, Human IgG1 Fc (huG1Fc) (human, UniProt P0DOX5 218-449 = IgG part); test: SPR, ligand directly immobilised, soluble Fcγ receptor as analyte, pH 7.3
T3 construct: Wild-type Fc control, directly immobilised on the chip; also called G1Fc homodimer

T1 sequence (P55899 24-297 limits assumed, chain 1 of 2): as the sequence (P55899 24-297 limits assumed, chain 1 of 2) above
T1 sequence (P61769 21-119 limits assumed, chain 2 of 2): as the sequence (P61769 21-119 limits assumed, chain 2 of 2) above

Row | Binder | koff [2] [s⁻¹] | Kd [3] [nM] | kon [3] [M⁻¹ s⁻¹] | other results
1 | huG1FcYPY (other, Fc fragment alone; also called G1FcYPY homodimer) EPKSCDKTHTCPPCPAPELLGGPSVFLFPPKPKDTLYISRTPEVTCVVVDVSHEDPEVKFNWYVDGVEVHNAKTKPREEQYNSTYRVVSVLTPLHQDWLNGKEYKCKVSNKALPAPIEKTISKAKGQPREPQVYTLPPSRDELTKNQVSLTCLVKGFYPSDIAVEWESNGQPENNYKTTPPVLDSDGSFFLYSKLTVDKSRWQQGNVFSCSVMHEALHYHYTQKSLSLSPGK | 0.000532 | 1.1 | 492000 | Kd [1]: 16.9 nM; koff [1]: 0.00525 s⁻¹; kon [1]: 311000 M⁻¹ s⁻¹
2 | huG1FcYTEKF (other, Human IgG1 Fc with M252Y, S254T, T256E, H433K, N434F, modelled on efgartigimod with five more N-terminal residues (EPKSC); Fc dimer is to be expected; also called benchmark molecule) EPKSCDKTHTCPPCPAPELLGGPSVFLFPPKPKDTLYITREPEVTCVVVDVSHEDPEVKFNWYVDGVEVHNAKTKPREEQYNSTYRVVSVLTVLHQDWLNGKEYKCKVSNKALPAPIEKTISKAKGQPREPQVYTLPPSRDELTKNQVSLTCLVKGFYPSDIAVEWESNGQPENNYKTTPPVLDSDGSFFLYSKLTVDKSRWQQGNVFSCSVMHEALKFHYTQKSLSLSPGK | 0.00236 | 2.4 | 970000 | 
3 | Vyvgart (other, also called Efgartigimod; commercially available Vyvgart product) DKTHTCPPCPAPELLGGPSVFLFPPKPKDTLYITREPEVTCVVVDVSHEDPEVKFNWYVDGVEVHNAKTKPREEQYNSTYRVVSVLTVLHQDWLNGKEYKCKVSNKALPAPIEKTISKAKGQPREPQVYTLPPSRDELTKNQVSLTCLVKGFYPSDIAVEWESNGQPENNYKTTPPVLDSDGSFFLYSKLTVDKSRWQQGNVFSCSVMHEALKFHYTQKSLSLSPGK |  |  |  | Kd [4]: 2.3 nM
4 | human FcγRI (CD64) (receptor, UniProt P12314 16-292, looked up, extracellular domain; also called FcyRI (CD64)) QVDTTKAVITLQPPWVSVFQEETVTLHCEVLHLPGSSSTQWFLNGTATQTSTPSYRITSASVNDSGEYRCQRGLSGRSDPIQLEIHRGWLLLQVSSRVFTEGEPLALRCHAWKDKLVYNVLYYRNGKAFKFFHWNSNLTILKTNISHNGTYHCSGMGKHRYTSAGISVTVKELFPAPVLNASVTSPLLEGNLVTLSCETKLLLQRPGLQLYFSFYMGSKTLRGRNTSSEYQILTARREDSGLYWCEAATEDGNVLKRSPELELQVLGLQLPTPVWFH |  |  |  | Kd [5]: 0.086 nM
